The values below come from patent US20210403601A1 (FAPON BIOTECH, published 2021).

The target in the test is T1, Taq DNA polymerase (Thermus aquaticus, UniProt P19821 1-832).
T1 construct: also called Taq enzyme; Taq DNA enzyme
Kind of test: AMC sensor, antibody immobilised.

T1 sequence (P19821 whole entry): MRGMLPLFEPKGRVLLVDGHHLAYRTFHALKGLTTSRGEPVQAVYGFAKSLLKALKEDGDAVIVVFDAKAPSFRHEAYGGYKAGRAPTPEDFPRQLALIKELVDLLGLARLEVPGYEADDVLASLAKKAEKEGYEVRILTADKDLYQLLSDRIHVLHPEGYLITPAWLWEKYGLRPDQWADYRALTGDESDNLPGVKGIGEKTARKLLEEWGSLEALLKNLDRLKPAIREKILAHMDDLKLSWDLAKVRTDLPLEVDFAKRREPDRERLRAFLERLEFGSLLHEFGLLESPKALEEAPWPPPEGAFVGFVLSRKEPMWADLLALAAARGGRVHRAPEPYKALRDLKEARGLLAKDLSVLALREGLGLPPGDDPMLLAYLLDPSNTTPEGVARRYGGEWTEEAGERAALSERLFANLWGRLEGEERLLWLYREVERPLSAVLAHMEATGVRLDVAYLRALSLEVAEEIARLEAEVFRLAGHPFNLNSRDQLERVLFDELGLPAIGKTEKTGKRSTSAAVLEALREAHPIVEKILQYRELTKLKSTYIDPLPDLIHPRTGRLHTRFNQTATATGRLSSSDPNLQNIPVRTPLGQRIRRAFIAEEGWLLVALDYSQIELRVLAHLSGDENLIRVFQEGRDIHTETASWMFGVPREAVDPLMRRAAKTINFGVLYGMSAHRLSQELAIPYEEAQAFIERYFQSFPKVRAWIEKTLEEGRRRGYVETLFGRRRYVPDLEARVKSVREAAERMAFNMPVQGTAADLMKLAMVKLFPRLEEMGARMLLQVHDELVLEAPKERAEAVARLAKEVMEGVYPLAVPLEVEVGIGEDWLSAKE

B1: Mutation 1-24 (antibody, V domains shown)
VH: QVQLQQPGAELVKPGASVRLSCQTSVETFSTYYIYWVKQRPGEGLEWIGGVNPTSGGPVFNEKFKSKATLTVDTSSSTAYMQLSSLTSVDSAVYYCTRSLLRRGYYFDYWGQGTALTVSS
VL: DIQMTQTTSSLSASLGDRVTISCRASQDIQNYVNWYQQKPDGTIKLLIYYTSRLQSGLPSRFSGSGSGTDYSLTIANLEQEDIATYFCQQDDTLPVTFGAGTKVELKR
notes: Mutation 1 background; CDRs built
On to B1, for which the affinity, expressed as Kd, was 0.199 nM; the koff (in general, a measure of how fast the partners let go of each other) was determined as 1.12e-05 s⁻¹; the kon (in general, the second-order rate constant of association) was 56400 M⁻¹ s⁻¹.

B2: Mutation 1-55 (antibody, V domains shown)
VH: QVQLQQPGAELVKPGASVRLSCQTSVDTFSTYYIYWVKQRPGEGLEWIGGVNPTSGGPVFNEKFKSKATLTVDTSSSTAYMQLSSLTSVDSAVYYCTRSIVRRGYYFDYWGQGTALTVSS
VL: DIQMTQTTSSLSASLGDRVTISCRASQDINNYVNWYQQKPDGTIKLLIYYTSRLNSGIPSRFSGSGSGTDYSLTIANLEQEDIATYFCQQDDTIPITFGAGTKVELKR
notes: as for B1
For B2, the Kd (commonly the equilibrium constant for the complex coming apart) amounted to 0.173 nM, the koff turned out to be 1.12e-05 s⁻¹ and the kon was determined as 64400 M⁻¹ s⁻¹.

B3: Mutation 1-38 (antibody, V domains shown)
VH: QVQLQQPGAELVKPGASVRLSCQTSVNTFSTYYIYWVKQRPGEGLEWIGGVNPTSGGPVFNEKFKSKATLTVDTSSSTAYMQLSSLTSVDSAVYYCTRSIIRRGYYFDYWGQGTALTVSS
VL: DIQMTQTTSSLSASLGDRVTISCRASQDIQNYLNWYQQKPDGTIKLLIYYTSRLNSGIPSRFSGSGSGTDYSLTIANLEQEDIATYFCQQDDTIPLTFGAGTKVELKR
notes: as for B1
In turn, B3 gave a Kd of 0.106 nM, a koff of 3.32e-06 s⁻¹ and a kon of 31400 M⁻¹ s⁻¹.

B4: Mutation 1-43 (antibody, V domains shown)
VH: QVQLQQPGAELVKPGASVRLSCQTSVETFTTYYIYWVKQRPGEGLEWIGGLNPTSNPVFNEKFKSKATLTVDTSSSTAYMQLSSLTSVDSAVYYCTRSLVRRGYYFDYWGQGTALTVSS
VL: DIQMTQTTSSLSASLGDRVTISCRASQDINNYVNWYQQKPDGTIKLLIYYTSRLHSGLPSRFSGSGSGTDYSLTIANLEQEDIATYFCQQDDTLPITFGAGTKVELKR
notes: as for B1
As for B4, the Kd worked out at 0.971 nM, the koff came to 6.92e-05 s⁻¹ and the kon came to 71200 M⁻¹ s⁻¹.

B5: Mutation 1-33 (antibody, V domains shown)
VH: QVQLQQPGAELVKPGASVRLSCQTSVETFSTYYIYWVKQRPGEGLEWIGGINPTSGGPVFNEKFKSKATLTVDTSSSTAYMQLSSLTSVDSAVYYCTRSLLRRGYYFDYWGQGTALTVSS
VL: DIQMTQTTSSLSASLGDRVTISCRASQDINNYLNWYQQKPDGTIKLLIYYTSRLQSGLPSRFSGSGSGTDYSLTIANLEQEDIATYFCQQDDTLPLTFGAGTKVELKR
notes: as for B1
In turn, B5 registered a Kd of 0.926 nM, a koff of 3.94e-05 s⁻¹ and a kon of 42600 M⁻¹ s⁻¹.

B6: Mutation 1-49 (antibody, V domains shown)
VH: QVQLQQPGAELVKPGASVRLSCQTSVETFTTYYIYWVKQRPGEGLEWIGGLNPTSNPVFNEKFKSKATLTVDTSSSTAYMQLSSLTSVDSAVYYCTRSVVRRGYYFDYWGQGTALTVSS
VL: DIQMTQTTSSLSASLGDRVTISCRASQDINNYVNWYQQKPDGTIKLLIYYTSRLQSGIPSRFSGSGSGTDYSLTIANLEQEDIATYFCQQDDTVPITFGAGTKVELKR
notes: as for B1
B6 came in with a Kd of 0.198 nM, a koff of 1.71e-05 s⁻¹ and a kon of 86100 M⁻¹ s⁻¹.

B7: Mutation 1-41 (antibody, V domains shown)
VH: QVQLQQPGAELVKPGASVRLSCQTSVDTFTTYYIYWVKQRPGEGLEWIGGVNPTSNPVFNEKFKSKATLTVDTSSSTAYMQLSSLTSVDSAVYYCTRSVIRRGYYFDYWGQGTALTVSS
VL: DIQMTQTTSSLSASLGDRVTISCRASQDINNYINWYQQKPDGTIKLLIYYTSRLNSGVPSRFSGSGSGTDYSLTIANLEQEDIATYFCQQDDTVPVTFGAGTKVELKR
notes: as for B1
B7 showed a Kd of 0.297 nM, a koff of 9.82e-06 s⁻¹ and a kon of 33100 M⁻¹ s⁻¹.

B8: Mutation 1-35 (antibody, V domains shown)
VH: QVQLQQPGAELVKPGASVRLSCQTSVDTFTTYYIYWVKQRPGEGLEWIGGVNPTSNPVFNEKFKSKATLTVDTSSSTAYMQLSSLTSVDSAVYYCTRSLIRRGYYFDYWGQGTALTVSS
VL: DIQMTQTTSSLSASLGDRVTISCRASQDINNYINWYQQKPDGTIKLLIYYTSRLNSGLPSRFSGSGSGTDYSLTIANLEQEDIATYFCQQDDTLPVTFGAGTKVELKR
notes: as for B1
Molecule B8 showed a Kd of 0.706 nM, a koff of 3.7e-05 s⁻¹ and a kon of 52400 M⁻¹ s⁻¹.

B9: Mutation 1-56 (antibody, V domains shown)
VH: QVQLQQPGAELVKPGASVRLSCQTSVDTFTTYYIYWVKQRPGEGLEWIGGINPTSGGPVFNEKFKSKATLTVDTSSSTAYMQLSSLTSVDSAVYYCTRSIIRRGYYFDYWGQGTALTVSS
VL: DIQMTQTTSSLSASLGDRVTISCRASQDIQNYLNWYQQKPDGTIKLLIYYTSRLNSGLPSRFSGSGSGTDYSLTIANLEQEDIATYFCQQDDTIPLTFGAGTKVELKR
notes: as for B1
In turn, B9 displayed a Kd of 0.914 nM, a koff of 3.79e-05 s⁻¹ and a kon of 41500 M⁻¹ s⁻¹.

B10: Mutation 1-53 (antibody, V domains shown)
VH: QVQLQQPGAELVKPGASVRLSCQTSVNTFSTYYIYWVKQRPGEGLEWIGGINPTSNPVFNEKFKSKATLTVDTSSSTAYMQLSSLTSVDSAVYYCTRSLIRRGYYFDYWGQGTALTVSS
VL: DIQMTQTTSSLSASLGDRVTISCRASQDINNYINWYQQKPDGTIKLLIYYTSRLHSGLPSRFSGSGSGTDYSLTIANLEQEDIATYFCQQDDTLPVTFGAGTKVELKR
notes: as for B1
Turning to B10, the Kd came to 0.384 nM, the koff worked out at 3.8e-05 s⁻¹ and the kon came out at 99000 M⁻¹ s⁻¹.

B11: Mutation 1-58 (antibody, V domains shown)
VH: QVQLQQPGAELVKPGASVRLSCQTSVETFTTYYIYWVKQRPGEGLEWIGGINPTSNPVFNEKFKSKATLTVDTSSSTAYMQLSSLTSVDSAVYYCTRSVVRRGYYFDYWGQGTALTVSS
VL: DIQMTQTTSSLSASLGDRVTISCRASQDIQNYINWYQQKPDGTIKLLIYYTSRLQSGIPSRFSGSGSGTDYSLTIANLEQEDIATYFCQQDDTVPITFGAGTKVELKR
notes: as for B1
The molecule B11 returned a Kd of 0.178 nM, a koff of 1.34e-05 s⁻¹ and a kon of 75000 M⁻¹ s⁻¹.

B12: Mutation 1-25 (antibody, V domains shown)
VH: QVQLQQPGAELVKPGASVRLSCQTSVETFTTYYIYWVKQRPGEGLEWIGGINPTSGGPVFNEKFKSKATLTVDTSSSTAYMQLSSLTSVDSAVYYCTRSLVRRGYYFDYWGQGTALTVSS
VL: DIQMTQTTSSLSASLGDRVTISCRASQDINNYVNWYQQKPDGTIKLLIYYTSRLHSGLPSRFSGSGSGTDYSLTIANLEQEDIATYFCQQDDTLPITFGAGTKVELKR
notes: as for B1
Molecule B12 returned a Kd of 0.678 nM, a koff of 4.57e-05 s⁻¹ and a kon of 67300 M⁻¹ s⁻¹.

B13: Mutation 1-26 (antibody, V domains shown)
VH: QVQLQQPGAELVKPGASVRLSCQTSVNTFSTYYIYWVKQRPGEGLEWIGGLNPTSGGPVFNEKFKSKATLTVDTSSSTAYMQLSSLTSVDSAVYYCTRSLIRRGYYFDYWGQGTALTVSS
VL: DIQMTQTTSSLSASLGDRVTISCRASQDIQNYLNWYQQKPDGTIKLLIYYTSRLNSGLPSRFSGSGSGTDYSLTIANLEQEDIATYFCQQDDTLPLTFGAGTKVELKR
notes: as for B1
For the molecule B13, the Kd amounted to 0.852 nM, the koff was 2.89e-05 s⁻¹ and the association rate constant (kon) amounted to 34000 M⁻¹ s⁻¹.

B14: Mutation 1-51 (antibody, V domains shown)
VH: QVQLQQPGAELVKPGASVRLSCQTSVNTFTTYYIYWVKQRPGEGLEWIGGINPTSGGPVFNEKFKSKATLTVDTSSSTAYMQLSSLTSVDSAVYYCTRSLLRRGYYFDYWGQGTALTVSS
VL: DIQMTQTTSSLSASLGDRVTISCRASQDINNYLNWYQQKPDGTIKLLIYYTSRLHSGVPSRFSGSGSGTDYSLTIANLEQEDIATYFCQQDDTLPLTFGAGTKVELKR
notes: as for B1
For B14, the Kd stood at 0.384 nM, the koff turned out to be 3.77e-05 s⁻¹ and the on-rate constant (kon) was found to be 98300 M⁻¹ s⁻¹.

B15: Mutation 1-45 (antibody, V domains shown)
VH: QVQLQQPGAELVKPGASVRLSCQTSVNTFTTYYIYWVKQRPGEGLEWIGGINPTSGGPVFNEKFKSKATLTVDTSSSTAYMQLSSLTSVDSAVYYCTRSILRRGYYFDYWGQGTALTVSS
VL: DIQMTQTTSSLSASLGDRVTISCRASQDINNYLNWYQQKPDGTIKLLIYYTSRLNSGVPSRFSGSGSGTDYSLTIANLEQEDIATYFCQQDDTIPLTFGAGTKVELKR
notes: as for B1
In the case of B15, the Kd came out at 0.0582 nM, the dissociation rate constant (koff) is 3.07e-06 s⁻¹ and the kon is 52600 M⁻¹ s⁻¹.

B16: Mutation 1-37 (antibody, V domains shown)
VH: QVQLQQPGAELVKPGASVRLSCQTSVETFTTYYIYWVKQRPGEGLEWIGGLNPTSNPVFNEKFKSKATLTVDTSSSTAYMQLSSLTSVDSAVYYCTRSIVRRGYYFDYWGQGTALTVSS
VL: DIQMTQTTSSLSASLGDRVTISCRASQDINNYVNWYQQKPDGTIKLLIYYTSRLHSGIPSRFSGSGSGTDYSLTIANLEQEDIATYFCQQDDTIPITFGAGTKVELKR
notes: as for B1
As to B16, binding was characterised by a dissociation constant (Kd) of 0.382 nM, the koff came out at 2.68e-05 s⁻¹ and the kon came out at 70200 M⁻¹ s⁻¹.

B17: Mutation 1-29 (antibody, V domains shown)
VH: QVQLQQPGAELVKPGASVRLSCQTSVETFTTYYIYWVKQRPGEGLEWIGGLNPTSNPVFNEKFKSKATLTVDTSSSTAYMQLSSLTSVDSAVYYCTRSIIRRGYYFDYWGQGTALTVSS
VL: DIQMTQTTSSLSASLGDRVTISCRASQDINNYINWYQQKPDGTIKLLIYYTSRLNSGIPSRFSGSGSGTDYSLTIANLEQEDIATYFCQQDDTIPVTFGAGTKVELKR
notes: as for B1
B17 gave a Kd of 0.0314 nM, a koff of 1.13e-06 s⁻¹ and a kon of 36100 M⁻¹ s⁻¹.

B18: Mutation 1-44 (antibody, V domains shown)
VH: QVQLQQPGAELVKPGASVRLSCQTSVNTFSTYYIYWVKQRPGEGLEWIGGVNPTSGGPVFNEKFKSKATLTVDTSSSTAYMQLSSLTSVDSAVYYCTRSLIRRGYYFDYWGQGTALTVSS
VL: DIQMTQTTSSLSASLGDRVTISCRASQDIQNYLNWYQQKPDGTIKLLIYYTSRLNSGLPSRFSGSGSGTDYSLTIANLEQEDIATYFCQQDDTLPVTFGAGTKVELKR
notes: as for B1
Turning to B18, the affinity, expressed as Kd, was 0.0133 nM; the koff turned out to be 4.9e-06 s⁻¹; the kon worked out at 369000 M⁻¹ s⁻¹.
